# Laboratory results taken from article PMC10598736, “Structural insights into Rad18 targeting by the SLF1 BRCT domains” (The Journal of Biological Chemistry, 2023).
# Square brackets hold non-standard residues; d marks the D form. Ends that are not written are not given here. Peptide text beside a SMILES is read from it. pS = N[C@@H](COP(=O)(O)O)C(=O)O
# T1: SLF1^tBRCT (residues 1–199), WT (Homo sapiens, UniProt Q9BQI6)
# T1 construct: The coding region for SLF1^tBRCT (residues 1–199) was optimized for expression in E. coli; made in house; host or cells: E. coli BL21 Rosetta (DE3)
# T1 sequence (Q9BQI6 1-199): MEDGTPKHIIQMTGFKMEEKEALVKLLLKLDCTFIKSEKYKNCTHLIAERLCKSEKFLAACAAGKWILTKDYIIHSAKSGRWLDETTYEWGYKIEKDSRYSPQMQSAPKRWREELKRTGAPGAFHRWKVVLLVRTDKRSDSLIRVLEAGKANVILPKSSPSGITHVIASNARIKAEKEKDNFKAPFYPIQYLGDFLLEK
# T2: SLF1 tandem BRCT repeat (SLF1^tBRCT), residues 1-199, wild type (UniProt Q9BQI6 1-199)
# T2 construct: SMC5/6 localization factor 1 (SLF1), tandem BRCT repeat at the N-terminus, residues 1-199; coding region optimized for E. coli and synthesized; also called WT; SMC5/6 localization factor 1 tBRCT; source: E. coli BL21 Rosetta (DE3), purified (Ni-NTA, heparin, gel filtration)
# T2 sequence (looked up): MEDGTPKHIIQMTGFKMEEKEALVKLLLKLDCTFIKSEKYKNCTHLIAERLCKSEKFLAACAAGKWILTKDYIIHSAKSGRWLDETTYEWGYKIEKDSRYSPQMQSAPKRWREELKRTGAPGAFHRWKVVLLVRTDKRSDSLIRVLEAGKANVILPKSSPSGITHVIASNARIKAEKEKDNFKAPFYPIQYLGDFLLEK
# T3: SLF1^tBRCT R50A (UniProt Q9BQI6 1-199, R50A)
# T3 construct: SMC5/6 localization factor 1 (SLF1), tandem BRCT repeat, residues 1-199, with R50A; also called R50A-substituted SLF1^tBRCT; source: E. coli BL21 Rosetta (DE3), purified (same protocol as the wild type)
# T3 sequence (looked up): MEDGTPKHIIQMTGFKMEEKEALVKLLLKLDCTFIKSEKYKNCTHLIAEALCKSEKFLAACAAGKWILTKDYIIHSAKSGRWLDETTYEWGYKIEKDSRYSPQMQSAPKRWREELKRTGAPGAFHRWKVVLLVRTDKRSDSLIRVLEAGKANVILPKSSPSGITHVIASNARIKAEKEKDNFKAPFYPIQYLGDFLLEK
# T4: SLF1^tBRCT K56A (UniProt Q9BQI6 1-199, K56A)
# T4 construct: SMC5/6 localization factor 1 (SLF1), tandem BRCT repeat, residues 1-199, with K56A; also called K56A-substituted SLF1^tBRCT; source: E. coli BL21 Rosetta (DE3), purified (same protocol as the wild type)
# T4 sequence (looked up): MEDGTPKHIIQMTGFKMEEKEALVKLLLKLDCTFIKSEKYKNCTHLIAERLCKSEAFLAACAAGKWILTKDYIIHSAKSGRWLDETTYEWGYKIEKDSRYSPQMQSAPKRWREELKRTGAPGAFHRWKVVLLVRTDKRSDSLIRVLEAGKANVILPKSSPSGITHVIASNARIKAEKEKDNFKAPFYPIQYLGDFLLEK
# T5: SLF1^tBRCT L142A (UniProt Q9BQI6 1-199, L142A)
# T5 construct: SMC5/6 localization factor 1 (SLF1), tandem BRCT repeat, residues 1-199, with L142A; source: E. coli BL21 Rosetta (DE3), purified (same protocol as the wild type)
# T5 sequence (looked up): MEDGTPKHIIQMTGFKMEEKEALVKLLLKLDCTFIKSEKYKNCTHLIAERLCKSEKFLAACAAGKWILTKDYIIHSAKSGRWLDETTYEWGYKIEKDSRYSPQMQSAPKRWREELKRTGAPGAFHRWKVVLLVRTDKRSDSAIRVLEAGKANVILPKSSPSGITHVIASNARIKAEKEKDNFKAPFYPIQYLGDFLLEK
# T6: SLF1^tBRCT I189A (UniProt Q9BQI6 1-199, I189A)
# T6 construct: SMC5/6 localization factor 1 (SLF1), tandem BRCT repeat, residues 1-199, with I189A; source: E. coli BL21 Rosetta (DE3), purified (same protocol as the wild type)
# T6 sequence (looked up): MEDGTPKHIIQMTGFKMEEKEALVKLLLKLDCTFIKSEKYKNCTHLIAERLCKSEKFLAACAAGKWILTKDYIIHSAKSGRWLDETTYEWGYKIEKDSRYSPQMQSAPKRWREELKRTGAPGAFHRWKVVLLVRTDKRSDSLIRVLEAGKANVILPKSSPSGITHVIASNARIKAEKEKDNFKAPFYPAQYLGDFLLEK
# Experiments:
# [1] = biological target: T1, SLF1^tBRCT (residues 1–199), WT; test: ITC of peptide binding to wild-type SLF1 tBRCT; details: 25 °C, 20 mM Tris pH 7.5, 200 mM NaCl; for Kd: 1.3 mM Rad18 peptide into 0.1 mM protein (BRCTide 6 mM into 0.2 mM), average ± SD of three independent repeats, ND = not detected
# Description: ITC experiments were carried out on a MicroCal ITC 200 instrument (Malvern) at 25 °C. Prior to the ITC experiments, SLF1^tBRCT was exchanged into a buffer containing 20 mM Tris (pH 7.5) and 200 mM sodium chloride and peptides (Sangon Biotech, Scilight biotechnology, Hefei Scierbio-Tech, Synpeptide) were dissolved in the same buffer. To characterize binding, a solution containing 1.3 mM Rad18 peptide or 6 mM BRCTide was injected into a 300-μl cell that stores 0.1 mM (for binding experiments with Rad18 peptides) or 0.2 mM (for the binding experiment with BRCTide) SLF1^tBRCT, 2 μl at a time. Data were analyzed with ORIGIN 7.0 (Originlab).
# [2] = biological target: SLF1 tandem BRCT repeat (SLF1^tBRCT), residues 1-199, wild type (UniProt Q9BQI6); test: ITC; MicroCal ITC 200, 25 °C, 20 mM Tris (pH 7.5), 200 mM sodium chloride; 1.3 mM Rad18 peptide or 6 mM BRCTide injected into 0.1 mM (Rad18 peptides) or 0.2 mM (BRCTide) SLF1^tBRCT in the cell; three independent repeats
# [3] = biological target: T2, SLF1 tandem BRCT repeat (SLF1^tBRCT), …; test: as above; details: both partners purified
# [4] = biological target: T3, SLF1^tBRCT R50A; test: as above; details: both partners purified
# [5] = biological target: T4, SLF1^tBRCT K56A; test: as above; details: both partners purified
# [6] = biological target: T5, SLF1^tBRCT L142A; test: as above; details: both partners purified
# [7] = biological target: T6, SLF1^tBRCT I189A; test: as above; details: both partners purified
molecule,measurement,setting,value
Rad18-NP: unphosphorylated Rad18 peptide of the Ser442/Ser444-containing region (SDSCNSSSSDIIRDLLE),binding to SLF1^tBRCT by ITC (in words),[1],undetectable
CC[C@H](C)[C@H](NC(=O)[C@H](CC(=O)O)NC(=O)[C@H](COP(=O)(O)O)NC(=O)[C@H](CO)NC(=O)[C@H](CO)NC(=O)[C@H](CO)NC(=O)[C@H](CC(N)=O)NC(=O)[C@H](CS)NC(=O)[C@H](CO)NC(=O)[C@H](CC(=O)O)NC(=O)[C@@H](N)CO)C(=O)N[C@H](C(=O)N[C@@H](CCCNC(=N)N)C(=O)N[C@@H](CC(=O)O)C(=O)N[C@@H](CC(C)C)C(=O)N[C@@H](CC(C)C)C(=O)N[C@@H](CCC(=O)O)C(=O)O)[C@@H](C)CC [Rad18-pS444] (H-SDSCNSSS[pS]DIIRDLLE-OH),Kd,[1],19700 ± 6460 nM
singularly phosphorylated Rad18-pS442 peptide (from UniProt Q9NS91 436-452),dH,[2],-1.79 kcal/mol
same,stoichiometry N,[2],1.13
Rad18-pS442-2IA: Rad18-pS442 peptide with I446A/I447A substitution (SDSCNS[pS]SSDAARDLLE),binding to SLF1^tBRCT by ITC (in words),[1],undetectable
Rad18-pS444 peptide (from UniProt Q9NS91 436-452),dH,[2],-1.1 kcal/mol
same,stoichiometry N,[2],1.28
CC[C@H](C)[C@H](NC(=O)[C@H](CC(=O)O)NC(=O)[C@H](CO)NC(=O)[C@H](CO)NC(=O)[C@H](COP(=O)(O)O)NC(=O)[C@H](CO)NC(=O)[C@H](CC(N)=O)NC(=O)[C@H](CS)NC(=O)[C@H](CO)NC(=O)[C@H](CC(=O)O)NC(=O)[C@@H](N)CO)C(=O)N[C@H](C(=O)N[C@@H](CCCNC(=N)N)C(=O)N[C@@H](CC(=O)O)C(=O)N[C@@H](CC(C)C)C(=O)N[C@@H](CC(C)C)C(=O)N[C@@H](CCC(=O)O)C(=O)O)[C@@H](C)CC [Rad18-pS442] (H-SDSCNS[pS]SSDIIRDLLE-OH),Kd,[1],156 ± 5 nM
CC[C@H](C)[C@H](NC(=O)[C@H](CC(=O)O)NC(=O)[C@H](COP(=O)(O)O)NC(=O)[C@H](CO)NC(=O)[C@H](COP(=O)(O)O)NC(=O)[C@H](CO)NC(=O)[C@H](CC(N)=O)NC(=O)[C@H](CS)NC(=O)[C@H](CO)NC(=O)[C@H](CC(=O)O)NC(=O)[C@@H](N)CO)C(=O)N[C@H](C(=O)N[C@@H](CCCNC(=N)N)C(=O)N[C@@H](CC(=O)O)C(=O)N[C@@H](CC(C)C)C(=O)N[C@@H](CC(C)C)C(=O)N[C@@H](CCC(=O)O)C(=O)O)[C@@H](C)CC [Rad18-2P] (H-SDSCNS[pS]S[pS]DIIRDLLE-OH),Kd,[1],15 ± 3 nM
Rad18-pS442-4A: Rad18-pS442 peptide with I446A/I447A/L450A/L451A substitutions (SDSCNS[pS]SSDAARDAAE),binding to SLF1^tBRCT by ITC (in words),[1],undetectable
"SDSCNS[pS]SSDIIRDAAE (peptide, UniProt Q9NS91 436-452, looked up, Rad18, human, residues 436-452, with L450A/L451A; source: synthetic peptide) [Rad18-pS442-2LA peptide (L450A/L451A)]",Kd,[3],450 nM
same,dH,[3],-2.39 kcal/mol
same,stoichiometry N,[3],1.67
"GAAYDI[pS]QVFPFAKKK (source: synthetic peptide) [BRCTide, phosphopeptide optimized for binding to the BRCA1 tBRCT]",Kd,[3],27500 nM
same,dH,[3],-0.75 kcal/mol
same,stoichiometry N,[3],1.12
"SDSCNS[pS]S[pS]DIIRDLLE (peptide, UniProt Q9NS91 436-452, looked up, Rad18, human, Ser442/Ser444-containing region, residues 436-452; also called dually phosphorylated Rad18 peptide; source: synthetic peptide) [Rad18 peptide containing phosphorylated Ser442 and Ser444 (Rad18-2P)]",dH,[2],-4.04 kcal/mol
same,stoichiometry N,[2],1.28
same,Kd,[4],160 nM
same,dH,[4],-3.82 kcal/mol
same,stoichiometry N,[4],1.45
same,Kd,[5],2210 nM
same,dH,[5],-0.86 kcal/mol
same,stoichiometry N,[5],1.16
same,Kd,[6],116 nM
same,dH,[6],-5.07 kcal/mol
same,stoichiometry N,[6],1.31
same,Kd,[7],31 nM
same,dH,[7],-2.98 kcal/mol
same,stoichiometry N,[7],1.21
"SDSCAS[pS]S[pS]DIIRDLLE (peptide, UniProt Q9NS91 436-452, looked up, Rad18, human, residues 436-452, with N440A; source: synthetic peptide) [Rad18-2P-N440A peptide]",Kd,[3],44 nM
same,dH,[3],-2.54 kcal/mol
same,stoichiometry N,[3],1.76
"SDSCNS[pS]S[pS]DIIADLLE (peptide, UniProt Q9NS91 436-452, looked up, Rad18, human, residues 436-452, with R448A; source: synthetic peptide) [Rad18-2P-R448A peptide]",Kd,[3],38 nM
same,dH,[3],-2.15 kcal/mol
same,stoichiometry N,[3],1.63
"SDSCNS[pS]S[pS]DIIRALLE (peptide, UniProt Q9NS91 436-452, looked up, Rad18, human, residues 436-452, with D449A; source: synthetic peptide) [Rad18-2P-D449A peptide]",Kd,[3],77 nM
same,dH,[3],-1.11 kcal/mol
same,stoichiometry N,[3],1.52
